In patent US20190112367A1:

Tests used:
[1] = molecular target: human IL-32gamma (R&D) (human) (UniProt P24001); experiment: cell-based or functional assay
[2] = molecular target: IL-32 (isotype not stated, analyte of the SPR experiment) (UniProt P24001); experiment: SPR, ProteOn XPR36, IL-32 injected over the antibody
[3] = molecular target: human IL-32gamma (R&D) (human) (UniProt P24001); experiment: ELISA, antigen coated at 1 µg/ml, serial dilutions of MAB

Row | Binder | IC 50 (neutralization of IL-32γ activity) [1] [mg/L] | Kd [2] [nM] | EC50 [3] [mg/L]
1 | anti-IL-32 antibody 2C2 (IgG3, lambda) (antibody, V domains shown) VH: QLRVQESGPGLLKPAETLSLTCSVSSGSVSNSRYYWAWIRQSPGKGLEWIGSMYYRGRSYYNPSLKSRLTISIDTSKNQFSLKLTSLTAADTAVYYCAAAVYHDLDYWGQGTLVTVSS VL: QSVLTQPPSVSAAPGQKVTISCSGSGSSIGNNYVSWYQQLPGAAPKLLIYDNTKRPSGIPDRFSGSKSGTSATLAITGLQPGDAADYYCGTWDSSFSVFWVFGGGTKLTVLS | 0.3 | 4 | 0.526
2 | anti-IL-32 antibody 26A6 (IgG1, lambda) (antibody, V domains shown) VH: QVQLVESGGGVVQPGRSLRLSCVASGLTFRTYGMHWVRQAPGNGLEWVAIIWHDGNKKYFADSVKGRFTISRDNSKNSLYLQMNSLRVEDTAVYYCAREMNGIDVWGQGTTVTVSS VL: SYELTQPPSVSVSPGQTARITCSGDALPETYVYWYQQKSGQAPVKLIYEDSERPSGIPERFSGSSSGTLATLTISGAHVEDEADYYCYSTDSSGIGVFGGGTKVTVLS | – | – | 1.33
